How the values were obtained:
[1] = target: T1, GITR overexpressed on HEK293F cells (UniProt Q9Y5U5 26-241, limits assumed); test: flow cytometry, HEK293F cells expressing the receptor, antibody 100 nM
T1 construct: whole, on cells
T1 sequence (looked up): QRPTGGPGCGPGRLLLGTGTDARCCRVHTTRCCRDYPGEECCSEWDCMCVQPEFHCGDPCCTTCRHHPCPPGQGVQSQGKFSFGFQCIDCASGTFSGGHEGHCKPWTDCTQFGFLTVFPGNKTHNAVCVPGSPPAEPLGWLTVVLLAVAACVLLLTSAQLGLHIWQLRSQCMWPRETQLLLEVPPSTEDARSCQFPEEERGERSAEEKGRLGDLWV
Protocol: (§1) The selectivity of antibodies for CD137 was evaluated using flow cytometry analysis of their binding ability to members of TNFR superfamily. The TNFRSF receptors including CD137, OX40, CD40, GITR and CD27 were transiently overexpressed on the surface of HEK293F cells. Transfected cells were washed in pre-chilled staining buffer (PBS supplemented with 2% FBS), then incubated with 100 nM test antibodies for 1 hr on ice. […] Samples were washed once with staining buffer prior to analysis by flow cytometry.

[2] = target: T2, CD27 overexpressed on HEK293F cells (UniProt P26842 20-260, limits assumed); test: as above
T2 construct: whole, on cells
T2 sequence (looked up): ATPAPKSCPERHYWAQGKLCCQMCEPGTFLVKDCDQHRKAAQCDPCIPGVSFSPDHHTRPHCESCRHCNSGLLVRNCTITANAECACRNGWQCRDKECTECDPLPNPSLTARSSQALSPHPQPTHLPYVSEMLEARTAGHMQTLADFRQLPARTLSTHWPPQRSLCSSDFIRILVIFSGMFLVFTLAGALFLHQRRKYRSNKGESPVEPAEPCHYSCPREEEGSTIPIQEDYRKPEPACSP
Protocol: as §1

Mean [1]: 18600 | Mean [2]: 6660
B1: AG10058 (antibody, human IgG4 S228P, kappa, V domains shown)
VH: EVQLVESGGGLVQPGGSLRLSCAASGFSLSTSGVGVGWIRQAPGKGLEWLALIDWDDDKYYSPSLKSRLTISRDNSKNTLYLQLNSLRAEDTAVYYCARGGSDTVLGDWFAYWGQGTLVTVSS
VL: DIQLTQSPSSLSASVGDRVTITCRASQSVSPYLAWYQQKPGKAPKLLIYDASSLESGVPSRFSGSGSGTDFTLTISSLQPEDFATYYCQQGYSLWTFGQGTKVEIKR
